B1: FADS1 (parent)
chain: LNFQIEHHLFPTMPRHNYHKVAPL
B2: DLC1 (parent)
chain: HVTHWMGQPFNSDDRNTACHHGLV

Variants of: B1
Test: protein stability index of a GFP-peptide fusion (GPS, HEK-293T) (PSI 1-6); higher = more stable
Conditions: c terminus: a fixed tail appended
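Also: lentivirally expressed fusions sorted by FACS into six bins by GFP to DsRed ratio, PSI derived from sequencing read proportions per bin multiplied by bin number.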

Protein stability index, by site and new letter:
L9: H 1.8 | S 2.71 | I 2.01 | Y 2.1 | T 1.42 | R 1.87 | E 1.23 | G 2.83 | C 1.72 | W 3.23
P14: L 1.18 | G 2.43 | N 3.36 | C 3.64 | A 2.64 | V 2.38 | Y 3.17 | R 1.76 | S 2.71
H7: R 1.65 | W 3.85 | D 1.93 | I 3.32 | E 1.76 | C 3.38 | P 2.19 | N 1.4
P23: K 1.54 | G 2.97 | R 1.69 | D 1.33 | I 2.42 | Y 1.79 | C 1.88 | Q 2.63 | E 2.21 | S 1.88
F10: K 2.14 | C 2.71 | R 1.87 | L 1.55 | W 2 | E 1.24 | Y 2.17 | Q 1.92 | M 1.37 | P 1.24 | A 2.17
H16: I 2.46 | P 2.19 | V 2.36 | F 2.12 | D 3.61 | S 1.28 | M 4.22 | C 3.19 | T 1.77
E6: Q 2.38 | Y 2.06 | N 1.19 | F 3.4 | S 1.8 | W 2.57 | G 1.77 | V 3.6 | M 2.24
H19: V 2.8 | E 2.25 | G 3.11 | Q 2 | K 2.3 | F 1.81 | A 2.85 | D 3.43
A22: W 2.34 | E 1.85 | K 1.89 | R 1.99 | C 1.65 | Q 2.06 | T 2.09 | G 1.05 | L 2.05 | I 3.37 | D 1.92
N2: P 1.65 | W 3.67 | Y 1.77 | C 1.98 | K 2.28 | D 2.91 | V 2.5
Y18: W 2.78 | E 2.65 | Q 2.17 | S 1.69 | K 2.25 | N 1.81 | P 2.99 | F 2.72 | D 1.44 | V 1.51
R15: Q 1.33 | T 2.55 | E 1.81 | C 3.14 | I 2.88 | W 2.99 | G 3.15 | V 2.01 | A 3.26 | S 2.95
N17: G 1.27 | C 3.44 | Q 2.33 | I 1.5 | K 1.27 | S 2.02 | E 2.35 | Y 2.39
H8: Q 2.35 | T 2.26 | R 1.74 | E 3.1 | S 2.12 | Y 2.57 | W 2.58 | D 2.14 | A 1.87 | P 2.11 | F 2.4
L24: E 2.33 | H 2.27 | K 1.79 | I 3.69 | M 1.81 | S 1.15 | P 2.3 | Q 2.02 | G 2.35 | N 2.15 | D 2.03 | W 2.03
L1: G 2.63 | P 2.26 | I 2.2 | D 1.31 | S 1.84 | Y 1.93 | H 2.1
M13: K 1.75 | V 2.6 | Y 2.83 | I 2.35 | S 2.59 | Q 1.15 | H 2.04 | E 1.35
T12: G 1.47 | K 1.92 | E 2.42 | D 1.98 | S 2.65 | M 1.73 | W 2.45 | H 1.46 | C 2.74 | Q 1.99
I5: G 2.01 | E 2.1 | R 2.27 | F 2.87 | C 2.33 | T 1.65 | Q 1.83 | Y 2.57 | P 2.14 | H 1.83 | K 2.06 | V 2.73 | L 2.35 | M 1.63
F3: G 2.42 | E 2.65 | C 2.22 | L 1.73 | R 1.96 | M 2.31 | S 2.15 | Y 1.37 | T 2.4
Q4: S 1.3 | F 2.52 | H 2.67 | C 1.86 | K 1.92 | R 1.6 | L 3.1 | V 3.42
K20: M 2.3 | T 1.79 | L 3.03 | V 1.2 | C 2.2 | Q 3.36 | I 2.65 | H 1.46 | G 1.99
V21: W 2.14 | T 2.23 | K 1.83 | S 1.98 | N 1.58 | Q 1.46 | Y 1.94 | A 1.32 | H 1.92 | F 2.85
P11: E 2.56 | A 2.35 | V 2.17 | N 2.27 | H 3.14 | T 2.24 | R 1.81 | C 2.3 | Y 2.96 | S 2

Variants of: B2
Test: as above
Conditions: c terminus: a fixed tail appended

Protein stability index, by site and new letter:
F10: K 2.78 | I 2.04 | N 2.86
G7: A 2.35 | H 1.97 | C 2.02 | L 2.26
M6: S 2.4 | E 3.24 | T 2.12 | K 3.28 | G 2.16
N16: F 1.92 | W 1.3 | I 2.13 | K 1.98 | Y 2.32 | L 1.8
H4: S 2.64 | G 1.5 | F 1.72 | W 1.6 | D 2.49 | M 2.72 | C 2.49
G22: I 1.34 | Q 2.1 | E 2.59 | N 1.99 | A 2.49 | K 2
P9: K 1.9 | T 2.29 | Y 2.43 | C 1.75 | W 1.6 | M 2.38
H20: Y 2.16 | T 2.25 | G 2.16 | K 2.41 | D 2.36
H21: P 1.95 | E 2.51 | I 1.85 | C 2.69 | M 2.21 | N 2.66
V24: G 1.92 | Q 2.19 | T 2.39
L23: R 2.47 | I 1.92 | H 2.46 | P 2.17 | T 2.26
D14: E 1.7 | W 1.65 | G 1.86 | S 1.83 | N 1.86 | T 1.99
T3: R 1.95 | H 1.93 | Q 1.93 | N 1.99 | L 1.59 | M 2.05
W5: G 3.89 | I 3.02 | V 3.55 | E 4.26 | S 4 | H 3.8
T17: V 2.1 | M 1.72 | F 2.06 | Y 1.86
S12: G 2.34 | N 2.55 | A 2.02
A18: V 2.33 | W 1.88 | H 2.25
D13: V 1.37 | R 1.62
R15: I 1.95 | M 1.83 | Q 2.01 | N 2.38 | E 2.32
Q8: S 2.15 | V 1.77 | W 1.55 | I 2.66
C19: T 2.61
V2: L 2.74 | N 3.11 | D 3.76 | T 2.71 | Y 2.42
H1: Y 3.14 | N 2.76
N11: L 2.14 | Q 2.23 | K 1.86
